The values below come from US20230075753A1.

For assay [1], the target named is Active human KLK5 (human) (UniProt Q9Y337). The experiment in a line: cell-based or functional assay.
The target of assay [2] is Active cyno KLK5 (cynomolgus monkey).

“And” between values parts separate entries of the source, which are not always exact repeats. Equal values may be shown once.

In the case of Human LEKTI D5 rabbit Fc fusion protein, in assay [1], the Hu KLK5 IC50, inhibition of protease activity (Boc-VPR-AMC) (not printed (M by Table 2)) is 1.03e-10 and 7.44e-11; the IC50 (M), inhibition of kallikrein protease activity (fluorogenic peptide substrate) was determined as 1.03e-10 M. In assay [2], this substance displayed an IC50 (read off the curve) of 700 pM.
